Assay results published in the supplement of paper PMC12042874.
± gives the uncertainty stated by the source.

assay: amyloid nucleation score (Sup35N fusion, yeast selection) (log enrichment); library NNK1; higher = more nucleation; inactive = no reads after selection
Outline: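 The nucleation score, computed with DiMSum, is the log enrichment of output over input reads, centred on the mode score of non-aggregating sequences. Sequences with under 100 input reads were dropped. Reads were generated by Illumina sequencing of plasmid inserts from psi-negative yeast with Sup35N fused to peptides of 20 random codons, induced with 100 μM copper sulfate for 24 hours and grown 7 days at 30°C on medium lacking adenine and uracil.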

Substance	amyloid nucleation score
IYRFGFRACVDPGLRIV	inactive
IYVLYQIERSVK	-0.154 ± 0.58
IYWSP	0.569 ± 0.26
IYYTSWYINAYLCGHMPVRG	2.52 ± 0.23
KACFPLI	0.631 ± 0.45
KADIFYSLCFLRVEG	-0.338 ± 0.79
KADQCLSWDS	-0.717 ± 0.97
KAPCDFSGFCRCRVTGPSHC	0.412 ± 0.33
KCDRHLKSYWSKELHYYYNF	-0.894 ± 0.38
KCGRVWHVFFVVSYQGVGST	1.31 ± 0.46
KCLSLNCMPYTFLLSRYYPY	inactive
KCLTLSCILDVCKNIVEEMI	0.047 ± 0.46
KCMEIILVLRVVRKWGSGGM	0.654 ± 0.97
KCSVCF	2.24 ± 0.35
KDHTWWALCFYIKIFELKVR	1.39 ± 0.73
KDRFMSIYLVSYWSGLCTGL	inactive
KDRMITPKPTVVTHLVVSYG	-0.23 ± 0.22
KDSFLMGGLFFMTAAWVSPR	1.54 ± 0.27
KDTQCHIARATRRGVRGNVF	-0.48 ± 1.1
KELCGLRGYTFYEQF	0.588 ± 0.74
KENQSIRFWVD	inactive
KFACLRWVICKYCLWV	-0.412 ± 0.49
KFFHLAIMWFTPSSPHKGTC	-0.496 ± 0.62
KFIDFERLFSLRGWSVCNER	0.889 ± 0.24
KFRDPYCKHRWAGLGKQSGD	0.052 ± 0.4

Substance	amyloid nucleation score
KFRSKLWNYFFACVEPATHP	-0.013 ± 0.72
KFVTVKTRQLKSAGASIVSG	-0.119 ± 0.69
KFVVMGWGYLTIRVVSVTDK	1.92 ± 0.64
KGFFNAITGDKIPRPSRDRR	0.174 ± 0.48
KGGSPQYNGVTSMWWDRKFD	-0.255 ± 0.38
KGHSANVYTAPLLCNNCHFF	6.703 ± 0.059
KGMYISWIVAVCS	0.411 ± 0.3
KGSSAMPL	inactive
KGWWKGLRARSQGPGVSDVW	-0.314 ± 0.57
KGYYDFRGVSLMVPVMFTMS	0.048 ± 0.38
KHQGNMTTINNKRAARLLGP	inactive
KHVGWSYG	0.779 ± 0.48
KICTYSRFC	0.848 ± 0.39
KILCWNIFLPYKGVRGRFGM	6.895 ± 0.053
KIRLQVNSFMFVTPWAHFMV	4.55 ± 0.052
KIRRGCMLLGQHVWTT	0.207 ± 0.35
KIRSPYNMMPMLTLGTSKGV	0.845 ± 0.61
KKRPRYRRWTS	0.578 ± 0.52
KLCQVRHVSWIMSCQRYKQD	0.058 ± 0.49
KLCRFCNRVCYCQ	-0.691 ± 1
KLCWASTRMMWRFYFLDCLD	0.146 ± 0.39
KLDNCGCGRGCEQLDVVQSQ	0.044 ± 0.53
KLHNILLWNCLVFLCVMYVW	inactive
KLILWGRLSANNFYYSFGFL	-0.214 ± 0.27
KLINCLGIVL	-0.92 ± 1.1

Substance	amyloid nucleation score
KLKINCMYN	2.03 ± 0.45
KLLDSSVVDSLRQHCEAGLR	0.075 ± 0.3
KLLHLVIVDELCFVRYSGLA	0.381 ± 0.81
KLQMGFIKMFAGQECFDVHA	inactive
KLSVGYRFWVLDSDFIVDDY	0.16 ± 0.23
KLVLLGNK	0.134 ± 0.5
KLVLYEVFSSKKKHIFLSHQ	0.586 ± 0.26
KLYNGLQHVQAGTLVMQ	0.46 ± 1.2
KMGYFE	0.915 ± 0.45
KMSAWQFGGHVLCNARMGYE	-0.112 ± 0.36
KMWIRCVIGVRMLYPFARCG	-0.138 ± 0.49
KNDYSYWL	-0.275 ± 0.65
KNKVTFKVG	0.22 ± 0.3
KPERICLWLVVKRYSMVHLW	0.253 ± 0.51
KQNNGFGWEYEAGGLHRKGA	-0.989 ± 2.7
KRFSSCLRRWAACNGESAAL	0.412 ± 0.45
KRIDDYAKFRC	inactive
KRLGWSSVFRLARVERVLRS	-0.929 ± 1.9
KRVLNLFGEESFAGMIWIDY	-0.125 ± 0.97
KSDLLNMRWVGYWFIVSSMR	0.099 ± 0.67
KSDVAARVCDER	0.526 ± 0.31
KSEYWHSCYVANSPYDYRTV	-0.422 ± 1.2
KSFYGNFRGFFNALNIYHSS	1.83 ± 0.28
KSLFVLVWTLLLPT	-0.223 ± 0.35
KSLMRTTMSCQSDYEDQKDV	0.883 ± 0.78

Substance	amyloid nucleation score
KSLQTETFTKTAATQKSELA	-0.3 ± 0.52
KSLSRFRVTNSKEYMSAMGT	-0.299 ± 0.26
KSMMDMSYLMEYIGI	-2.65 ± 2.4
KSVLQFETMGFVDLYFSFNL	5.49 ± 0.091
KSVPRKVFGAILDFLDLQLM	0.979 ± 0.73
KSWQFMSRGVSGWFWRLVPQ	0.743 ± 0.48
KSYVCGTLTFRLGSVHCVNM	7.025 ± 0.057
KTGFYGFMVGM	4.54 ± 0.063
KTRFLKYDNLSWTDKSNWVL	inactive
KVFRLILGGVSNKYT	0.228 ± 0.64
KVFSVHRHCQESVVGAVLCS	-0.371 ± 0.73
KVQIY	-0.968 ± 0.36
KVRMLNMVYKNLSDRD	0.884 ± 0.56
KVWSGCSAPQ	2.09 ± 0.43
KWCDMRGYGQRFRCGRMVHV	-0.727 ± 0.73
KWTGRGSYNDRLFVRRRMF	-0.073 ± 0.47
LAAVQTDMFISTLLECLDDK	1.08 ± 0.35
LADDHE	0.229 ± 0.93
LAEGASTL	-0.217 ± 1.1
LAHWHFNWSRILQCFYW	3.08 ± 0.095
LAIEENVRDQSGDYVWALIL	-0.122 ± 0.35
LALHEWLWLFDTFH	-0.097 ± 0.62
LALKYPSLISPKRWT	0.688 ± 0.36
LALVFLLMFVHQSDDYKLRN	2.89 ± 0.17
LAMSSQSHYCKRRSVCRKSV	0.786 ± 0.81

Substance	amyloid nucleation score
LAPNNYAFHVNKSWGMNLVW	1.05 ± 0.2
LASEHNGASLICTLACTYLW	-0.642 ± 1
LASGNILAICWTRSEGSDTL	-0.313 ± 1.1
LASHHLACCYPNLSTSYLNP	-0.118 ± 0.84
LAYKNSLWGLLWKRF	-0.011 ± 0.49
LCAFLPVRTVKLCAFRIFDR	-1.06 ± 0.85
LCCAKLRNAIKVVNQCTCGY	4.4 ± 0.049
LCCKVLLALSAPGQFSVHNA	-0.621 ± 1.4
LCDFVLNIEREVNVYSFIKL	2.34 ± 0.13
LCDSPSKYNGPEYSMYVNLN	1.51 ± 0.7
LCEFSPLSCGCYGRDPHVPP	-0.73 ± 1.2
LCELQYAKWIMKLVYKTFTT	inactive
LCFVVVTSHDRGMHVIKVET	-0.857 ± 0.51
LCIIYVNYSGLLMTVNISSF	inactive
LCKVPLNT	1.36 ± 0.9
LCLSSWGLTLSLLIDCIYNR	-0.53 ± 0.48
LCMMMVQPLQGLSSAVTWSQ	-0.54 ± 0.35
LCRFSAEDHCYADCTVDHCC	-0.244 ± 0.66
LCSMKMIYQKC	0.177 ± 0.33
LCTLCIALPVMRVLSTVPVP	0.267 ± 0.59
LCVCGPRSVVNAREDVEGLS	0.478 ± 0.55
LCVRAIVRSCNSWKKYSFPR	0.031 ± 1
LCWVYHYKGFKRGVCRRCES	-0.86 ± 1.6
LCYFQGSWYLVRCAIALTYV	0.327 ± 0.48
LDASRNFVLLFS	0.784 ± 0.34

Substance	amyloid nucleation score
LDCHD	-0.246 ± 0.44
LDDAWRVWMHSL	0.981 ± 0.43
LDFNLICLYFLM	5.37 ± 0.072
LDLAGGKG	1.74 ± 0.14
LDNRYFGHIMSLELMFIRPS	1.19 ± 0.58
LDNWYISRFCCDVMTDANVD	-0.322 ± 0.8
LDTYRVNWMMRLATYNMMVM	0.312 ± 0.4
LDWHKLRDWVKLGW	-0.255 ± 0.73
LDWLMGGRTA	-0.598 ± 1.7
LENYDRGDSTRHIDCRLLFL	0.275 ± 0.52
LEQCYAAHSTYKMMPWAYKA	0.091 ± 0.33
LETINSSGRHF	2.74 ± 0.091
LEVVHRVLCTFCLFDSLMVY	1.78 ± 0.26
LEVYGQCDRVHCHSSR	-0.276 ± 0.5
LFFECVTLHLYLVKSS	-1.1 ± 2.4
LFFEVMHTFMLNMEFLLRFI	-1.12 ± 0.94
LFGLYFICSLKAISSYTERL	0.456 ± 0.23
LFHGCLVGLSMRKVKKKNPA	0.277 ± 0.28
LFIKFGTHVRYILA	-0.202 ± 0.42
LFIKVLLGFF	0.32 ± 0.45
LFLGGVIVHSQLCMTVGCCF	6.54 ± 0.079
LFLMKANMELVNLYFRSEVR	-0.556 ± 0.52
LFLSSCLNSGLGGTL	0.105 ± 0.29
LFMIMLL	-1.01 ± 0.43
LFRNANAMDYVVRCWCSRGI	0.928 ± 0.18

Substance	amyloid nucleation score
LFSWICEN	0.142 ± 0.28
LFVRFKTYVLP	0.663 ± 0.3
LFVRKVIYVDR	0.379 ± 0.33
LFYNICFYA	6.738 ± 0.048
LGALIYNSAFN	inactive
LGDELDTDAASISSNMEIWS	inactive
LGEMGRVSYLYVCLHWALLS	0.119 ± 0.44
LGFAFQNVTKALNLTFAYGS	0.81 ± 0.15
LGFLRLFKKYVFYACCDVYS	-0.175 ± 0.84
LGFPMRSVGQI	inactive
LGFRVNWIDHPRSNRSTAGL	0.604 ± 0.97
LGGGTFVRWLKSILSFLLW	0.325 ± 0.46
LGKIAQLYSEEVEQKSGSGV	-0.539 ± 0.42
LGMGLTKLLSNYMSGIIVPL	-0.047 ± 1.7
LGNIKFITYVERCTQEVVSY	-1.49 ± 1.8
LGQGRLYILYFMSMYLDMMG	0.748 ± 0.47
LGRHLMILTYQYEEDFPKYR	0.938 ± 0.16
LGTIVVSSVGKLGIIMTRAE	1.3 ± 0.15
LGWIDSYTYHWDTIHRKQFR	0.878 ± 0.33
LGWVYLHMWLGTIYYLFFVI	-1.14 ± 1
